Each block holds one substance with its values, some of them ahead of it.
Legend:
[1] = target: T1, proteasome isolated from human red blood cells (Homo sapiens, UniProt P28072+P28074+Q99436); assay: N-terminal pool sequence analysis of proteasomal digest; format: biochemical; settings: in vitro proteasome digestion and N-terminal pool sequencing
T1 construct: from tissue; host or cells: human red blood cells
Text: One aliquot at one hour of the proteasomal digestion (see Example 3 part 3 above) was subjected to N-terminal amino acid sequence analysis by an ABI 473A Protein Sequencer (Applied Biosystems, Foster City, Calif.). Determination of the sites and efficiencies of cleavage was based on consideration of the sequence cycle, the repetitive yield of the protein sequencer, and the relative yields of amino acids unique in the analyzed sequence. That is if the unique (in the analyzed sequence) residue X appears only in the nth cycle a cleavage site exists n−1 residues before it in the N-terminal direction.

HLA-A1+ CD8+ T cells = assay: gamma-IFN-based ELISPOT assay; format: cell-based, human; settings: blocking of gamma IFN production by anti-HLA-A1 monoclonal antibody
Description: The wells of a nitrocellulose-backed microtiter plate were coated with capture antibody by incubating overnight at 4° C. using 50 μl (microliter)/well of 4 μg/ml murine anti-human γ (gamma)-IFN monoclonal antibody in coating buffer (35 mM sodium bicarbonate, 15 mM sodium carbonate, pH 9.5). Unbound antibody was removed by washing 4 times 5 min. with PBS. Unbound sites on the membrane then were blocked by adding 200 μl (microliter)/well of RPMI medium with 10% serum and incubating 1 hr. at room temperature. Antigen stimulated CD8^+ T cells, in 1:3 serial dilutions, were seeded into the wells of the microtiter plate using 100 μl (microliter)/well, starting at 2×10^5 cells/well. (Prior antigen stimulation was essentially as described in Scheibenbogen, C. et al. Int. J. […] PSMA462-471 (SEQ ID NO. 62) was added to a final concentration of 10 μg/ml and IL-2 to 100 U/ml and the cells cultured at 37° C. in a 5% CO2, water-saturated atmosphere for 40 hrs. Following this incubation the plates were washed with 6 times 200 μl (microliter)/well of PBS containing 0.05% Tween-20 (PBS-Tween). […] The plate was air dried and the spots counted using a stereomicroscope. […] No reactivity is detected from cultures without peptide (data not shown).

HLA-A2.1 = HLA-A2.1 (Homo sapiens, UniProt P04439, D140Y/D185E/D98H/E176V/E277Q/G131W/G231S/I119V/I121R/I166T/I218V/L300P/L318F/N151K/N90K/P208A/P217A/Q86G/Q94H/R138H/R169H/T345S); assay: HLA-A0201 binding assay (T2 cells, flow cytometry); settings: for binding to HLA-A2.1: T2 cells, flow cytometry, compared with control peptides
624.38 = assay: In vitro induced CTL, chromium release assay on tumor cell line; format: cell-based, human; settings: 624.38, HLA-A2+, tyrosinase+
Description: (§1) , tyrosinase207-215 (SEQ ID NO. 8) was used in an in vitro immunization of HLA-A2^+ blood to generate CTL (see CTL Induction Cultures below).
(§2) PBMCs from normal donors were purified by centrifugation in Ficoll-Hypaque from buffy coats. All cultures were carried out using the autologous plasma (AP) to avoid exposure to potential xenogeneic pathogens and recognition of FBS peptides. To favor the in vitro generation of peptide-specific CTL, we employed autologous dendritic cells (DC) as APCs. DC were generated and CTL were induced with DC and peptide from PBMCs as described (Keogh et al., 2001). Briefly, monocyte-enriched cell fractions were cultured for 5 days with GM-CSF and IL-4 and were cultured for 2 additional days in culture media with 2 μg/ml CD40 ligand to induce maturation. 2×10^6 CD8+-enriched T lymphocytes/well and 2×10^5 peptide-pulsed DC/well were co-cultured in 24-well plates in 2 ml RPMI supplemented with 10% AP, 10 ng/ml IL-7 and 20 IU/ml IL-2. Cultures were restimulated on days 7 and 14 with autologous irradiated peptide-pulsed DC.

HTB64 = assay: as above; format: cell-based, human; settings: HTB64, HLA-A2+, tyrosinase+
Description: as §1, §2

peptide pulsed T2 cells [2] = assay: In vitro immunization of HLA-A2+ blood (CTL induction cultures), chromium release assay; format: cell-based, human
Description: as §1, §2

metastatic melanoma = settings: first 15 patients; intradermal peptide with IL-12; cited from earlier work
peptide pulsed T2 cells [3] = assay: In vivo immunization of mice, in vitro stimulation, chromium-release assay measuring CTL activity; parameters: species or system HHD1 transgenic A*0201 mice; settings: 100 nmol peptide s.c. with HTL epitope peptide in IFA; 51Cr-release
Description: Using spleens from 2 naive mice for each group of immunized mice, un-immunized mice were sacrificed and the carcasses were placed in alcohol. Using sterile instruments, the top dermal layer of skin on the mouse's left side (lower mid-section) was cut through, exposing the peritoneum. The peritoneum was saturated with alcohol, and the spleen was aseptically extracted. The spleen was placed in a petri dish with serum-free media. Splenocytes were isolated by using sterile plungers from 3 ml syringes to mash the spleens. Cells were collected in a 50 ml conical tubes in serum-free media, rinsing dish well. Cells were centrifuged ([…], 7 min) and washed one time with RPMI. Fresh spleen cells were resuspended to a concentration of 1×10^6 cells per ml in RPMI-10% FCS (fetal calf serum). 25 µg/ml lipopolysaccharide and 7 μg/ml Dextran Sulfate were added. Cell were incubated for 3 days in T-75 flasks at 37° C., with 5% CO2. Splenic blasts were collected in 50 ml tubes pelleted ([…], 7 min) and resuspended to 3×10^7/ml in RPMI. The blasts were pulsed with the priming peptide at 50 μg/ml, RT 4 hr. mitomycin C-treated at 25 μg/ml, 37° C., 20 min and washed three times with DMEM. […]
During incubation they were gently shaken every 15 minutes. […] Supernatants were harvested and counted using a gamma counter.

[4] = test system: tumor cells expressing other SSX proteins; assay: Cross-reactivity of CTL with other SSX proteins; format: cell-based
Text: The surrounding regions have also been generally well conserved. Thus the housekeeping proteasome can cleave following V49 in all five sequences.

relative production by in vitro proteasome digestion [1]: produced more commonly
Substance: FLPWHRLFLL (listed as Homo sapiens) [Tyrosinase207-216]

Substance: RVDCTPLMY [PSMA463-471]
HLA restriction of response (HLA-A1+ CD8+ T cells): HLA-A1-restricted response

Substance: GMPEGDLVYV (listed as Homo sapiens) [PSMA168-177]
binding to HLA-A2.1 (HLA-A2.1): significant binding at even lower concentrations than the positive control peptides

binding to HLA-A2.1 (HLA-A2.1): more significant binding
Substance: FLPWHRLFL (listed as Homo sapiens) [tyrosinase207-215]
recognition of tumor cell line by CTL induced by the peptide (624.38): recognize | recognition of tumor cell line by CTL induced by the peptide (HTB64): recognize | immunogenicity (peptide pulsed T2 cells [2]; compared with the other tyrosinase length variant): superior immunogenicity | recognition of tyrosinase207-216 targets by CTL induced by the peptide (peptide pulsed T2 cells [2]; peptide pulsed T2 cells, standard chromium release assay): equally well

Substance: MART-126-35 peptide: MART-1 26-35 peptide given intradermally with IL-12 to metastatic melanoma patients (Cebon et al.)
clinical response (metastatic melanoma): 1 complete remission, 1 partial remission, and 1 mixed response

binding to HLA-A2.1 (HLA-A2.1): binds nearly as well
Substance: TLRVDCTPL (listed as Homo sapiens) [PSMA461-469]

Substance: KASEKIFYV [SSX-241-49]
specific lysis of peptide pulsed targets by CTL from immunized mice (peptide pulsed T2 cells [3]): specific lysis | cross-reactivity of CTL generated by immunization [4]: cross-react with tumor cells expressing other SSX proteins | binding to HLA-A2.1 (HLA-A2.1): bind HLA-A2.1 to a similar extent as the known A2.1 binder FLPSDYFPSV

Substance: GLPSIPVHPI (listed as Homo sapiens) [PSMA288-297]
binding to HLA-A2.1 (HLA-A2.1): significant binding at even lower concentrations than the positive control peptides

Substance: MMNDQLMFL [PSMA663-671]
binding to HLA-A2.1 (HLA-A2.1): significant binding at even lower concentrations than the positive control peptide

Substance: YTLRVDCTPL (listed as Homo sapiens) [PSMA460-469]
binding to HLA-A2.1 (HLA-A2.1): bind HLA-A2.1 to a similar extent as the known A2.1 binder FLPSDYFPSV

binding activity compared between the two PSMA peptides (HLA-A2.1; not run in parallel, comparison to the controls): superior binding activity
Substance: RMMNDQLMFL (listed as Homo sapiens) [PSMA662-671]
binding to HLA-A2.1 (HLA-A2.1): significant binding at even lower concentrations than the positive control peptide

Source: patent US20090285843A1, “EPITOPE SEQUENCES” (Mannkind Corporation, priority 2002, published 2009)
